{"source": "the supplement of paper PMC10567573", "parents": {"B1": {"name": "SLC2A12 (parent)", "chain": "TRIMIGLTLVFFVQITGQPNILFY"}}}
{"variants_of": "B1", "assay": "protein stability index of a GFP-peptide fusion (GPS, HEK-293T) (PSI 1-6); higher = more stable", "settings": "c terminus: a fixed tail appended"}
{"variant": "TRIMIGSTLVFFVQITGQPNILFY", "note": "[L7S]", "protein stability index": 3.54}
{"variant": "TRIMIGNTLVFFVQITGQPNILFY", "note": "[L7N]", "protein stability index": 2.78}
{"variant": "TRIMIGITLVFFVQITGQPNILFY", "note": "[L7I]", "protein stability index": 2.63}
{"variant": "TRIMIGRTLVFFVQITGQPNILFY", "note": "[L7R]", "protein stability index": 2.42}
{"variant": "TRIMIGYTLVFFVQITGQPNILFY", "note": "[L7Y]", "protein stability index": 4.24}
{"variant": "TRIMIGWTLVFFVQITGQPNILFY", "note": "[L7W]", "protein stability index": 2.84}
{"variant": "TRIMIGETLVFFVQITGQPNILFY", "note": "[L7E]", "protein stability index": 2.62}
{"variant": "TRIMIGFTLVFFVQITGQPNILFY", "note": "[L7F]", "protein stability index": 2.41}
{"variant": "TRIMIGKTLVFFVQITGQPNILFY", "note": "[L7K]", "protein stability index": 1.8}
{"variant": "TRIMIGVTLVFFVQITGQPNILFY", "note": "[L7V]", "protein stability index": 2.5}
{"variant": "TRIMIGHTLVFFVQITGQPNILFY", "note": "[L7H]", "protein stability index": 3.31}
{"variant": "TRIMIGPTLVFFVQITGQPNILFY", "note": "[L7P]", "protein stability index": 2.96}
{"variant": "TRIMIGCTLVFFVQITGQPNILFY", "note": "[L7C]", "protein stability index": 2.22}
{"variant": "TRIMIGQTLVFFVQITGQPNILFY", "note": "[L7Q]", "protein stability index": 1.72}
{"variant": "TRIMIGDTLVFFVQITGQPNILFY", "note": "[L7D]", "protein stability index": 2.9}
{"variant": "TRIMIGATLVFFVQITGQPNILFY", "note": "[L7A]", "protein stability index": 3.65}
{"variant": "TWIMIGLTLVFFVQITGQPNILFY", "note": "[R2W]", "protein stability index": 3.62}
{"variant": "TYIMIGLTLVFFVQITGQPNILFY", "note": "[R2Y]", "protein stability index": 2.27}
{"variant": "TSIMIGLTLVFFVQITGQPNILFY", "note": "[R2S]", "protein stability index": 2.95}
{"variant": "TQIMIGLTLVFFVQITGQPNILFY", "note": "[R2Q]", "protein stability index": 4}
{"variant": "TNIMIGLTLVFFVQITGQPNILFY", "note": "[R2N]", "protein stability index": 3.48}
{"variant": "TTIMIGLTLVFFVQITGQPNILFY", "note": "[R2T]", "protein stability index": 2.27}
{"variant": "TRNMIGLTLVFFVQITGQPNILFY", "note": "[I3N]", "protein stability index": 2.12}
{"variant": "TRTMIGLTLVFFVQITGQPNILFY", "note": "[I3T]", "protein stability index": 1.84}
{"variant": "TRGMIGLTLVFFVQITGQPNILFY", "note": "[I3G]", "protein stability index": 2.12}
{"variant": "TRRMIGLTLVFFVQITGQPNILFY", "note": "[I3R]", "protein stability index": 2.86}
{"variant": "TRFMIGLTLVFFVQITGQPNILFY", "note": "[I3F]", "protein stability index": 2.81}
{"variant": "TRYMIGLTLVFFVQITGQPNILFY", "note": "[I3Y]", "protein stability index": 3.58}
{"variant": "TRLMIGLTLVFFVQITGQPNILFY", "note": "[I3L]", "protein stability index": 2.85}
{"variant": "TRCMIGLTLVFFVQITGQPNILFY", "note": "[I3C]", "protein stability index": 2.21}
{"variant": "TRAMIGLTLVFFVQITGQPNILFY", "note": "[I3A]", "protein stability index": 2.59}
{"variant": "TRMMIGLTLVFFVQITGQPNILFY", "note": "[I3M]", "protein stability index": 3.1}
{"variant": "TRKMIGLTLVFFVQITGQPNILFY", "note": "[I3K]", "protein stability index": 2.94}
{"variant": "TRHMIGLTLVFFVQITGQPNILFY", "note": "[I3H]", "protein stability index": 2.87}
{"variant": "TRSMIGLTLVFFVQITGQPNILFY", "note": "[I3S]", "protein stability index": 3.14}
{"variant": "TRPMIGLTLVFFVQITGQPNILFY", "note": "[I3P]", "protein stability index": 2.49}
{"variant": "TRINIGLTLVFFVQITGQPNILFY", "note": "[M4N]", "protein stability index": 3.52}
{"variant": "TRIFIGLTLVFFVQITGQPNILFY", "note": "[M4F]", "protein stability index": 2.29}
{"variant": "TRIHIGLTLVFFVQITGQPNILFY", "note": "[M4H]", "protein stability index": 2.79}
{"variant": "TRIPIGLTLVFFVQITGQPNILFY", "note": "[M4P]", "protein stability index": 2.72}
{"variant": "TRIGIGLTLVFFVQITGQPNILFY", "note": "[M4G]", "protein stability index": 2.99}
{"variant": "TRIRIGLTLVFFVQITGQPNILFY", "note": "[M4R]", "protein stability index": 3.83}
{"variant": "TRILIGLTLVFFVQITGQPNILFY", "note": "[M4L]", "protein stability index": 2.64}
{"variant": "TRISIGLTLVFFVQITGQPNILFY", "note": "[M4S]", "protein stability index": 3.75}
{"variant": "TRIVIGLTLVFFVQITGQPNILFY", "note": "[M4V]", "protein stability index": 4.05}
{"variant": "TRIAIGLTLVFFVQITGQPNILFY", "note": "[M4A]", "protein stability index": 3.65}
{"variant": "TRIWIGLTLVFFVQITGQPNILFY", "note": "[M4W]", "protein stability index": 3.96}
{"variant": "TRIDIGLTLVFFVQITGQPNILFY", "note": "[M4D]", "protein stability index": 3.33}
{"variant": "TRICIGLTLVFFVQITGQPNILFY", "note": "[M4C]", "protein stability index": 4.43}
{"variant": "TRITIGLTLVFFVQITGQPNILFY", "note": "[M4T]", "protein stability index": 2.73}
{"variant": "TRIYIGLTLVFFVQITGQPNILFY", "note": "[M4Y]", "protein stability index": 2.6}
{"variant": "TRIQIGLTLVFFVQITGQPNILFY", "note": "[M4Q]", "protein stability index": 2.88}
{"variant": "TRIIIGLTLVFFVQITGQPNILFY", "note": "[M4I]", "protein stability index": 1.92}
{"variant": "TRIMIGLPLVFFVQITGQPNILFY", "note": "[T8P]", "protein stability index": 4.51}
{"variant": "TRIMIGLGLVFFVQITGQPNILFY", "note": "[T8G]", "protein stability index": 2.77}
{"variant": "TRIMIGLHLVFFVQITGQPNILFY", "note": "[T8H]", "protein stability index": 4.12}
{"variant": "TRIMIGLILVFFVQITGQPNILFY", "note": "[T8I]", "protein stability index": 2.72}
{"variant": "TRIMIGLDLVFFVQITGQPNILFY", "note": "[T8D]", "protein stability index": 2.01}
{"variant": "TRIMIGLLLVFFVQITGQPNILFY", "note": "[T8L]", "protein stability index": 3.33}
{"variant": "TRIMIGLQLVFFVQITGQPNILFY", "note": "[T8Q]", "protein stability index": 2.43}
{"variant": "TRIMIGLCLVFFVQITGQPNILFY", "note": "[T8C]", "protein stability index": 3.82}
{"variant": "TRIMIGLMLVFFVQITGQPNILFY", "note": "[T8M]", "protein stability index": 3.52}
{"variant": "TRIMIGLNLVFFVQITGQPNILFY", "note": "[T8N]", "protein stability index": 3.93}
{"variant": "TRIMIGLFLVFFVQITGQPNILFY", "note": "[T8F]", "protein stability index": 2.26}
{"variant": "TRIMHGLTLVFFVQITGQPNILFY", "note": "[I5H]", "protein stability index": 3.25}
{"variant": "TRIMKGLTLVFFVQITGQPNILFY", "note": "[I5K]", "protein stability index": 3.18}
{"variant": "TRIMRGLTLVFFVQITGQPNILFY", "note": "[I5R]", "protein stability index": 2.21}
{"variant": "TRIMMGLTLVFFVQITGQPNILFY", "note": "[I5M]", "protein stability index": 1.77}
{"variant": "TRIMQGLTLVFFVQITGQPNILFY", "note": "[I5Q]", "protein stability index": 3.43}
{"variant": "TRIMVGLTLVFFVQITGQPNILFY", "note": "[I5V]", "protein stability index": 2.69}
{"variant": "TRIMDGLTLVFFVQITGQPNILFY", "note": "[I5D]", "protein stability index": 3.91}
{"variant": "TRIMEGLTLVFFVQITGQPNILFY", "note": "[I5E]", "protein stability index": 3.74}
{"variant": "TRIMTGLTLVFFVQITGQPNILFY", "note": "[I5T]", "protein stability index": 2.83}
{"variant": "TRIMAGLTLVFFVQITGQPNILFY", "note": "[I5A]", "protein stability index": 2.6}
{"variant": "TRIMYGLTLVFFVQITGQPNILFY", "note": "[I5Y]", "protein stability index": 2.65}
{"variant": "TRIMGGLTLVFFVQITGQPNILFY", "note": "[I5G]", "protein stability index": 3.23}
{"variant": "TRIMLGLTLVFFVQITGQPNILFY", "note": "[I5L]", "protein stability index": 3.43}
{"variant": "TRIMFGLTLVFFVQITGQPNILFY", "note": "[I5F]", "protein stability index": 3.16}
{"variant": "TRIMILLTLVFFVQITGQPNILFY", "note": "[G6L]", "protein stability index": 2.22}
{"variant": "TRIMIVLTLVFFVQITGQPNILFY", "note": "[G6V]", "protein stability index": 2.43}
{"variant": "TRIMIHLTLVFFVQITGQPNILFY", "note": "[G6H]", "protein stability index": 2.34}
{"variant": "TRIMIELTLVFFVQITGQPNILFY", "note": "[G6E]", "protein stability index": 3.67}
{"variant": "TRIMITLTLVFFVQITGQPNILFY", "note": "[G6T]", "protein stability index": 3.1}
{"variant": "TRIMIMLTLVFFVQITGQPNILFY", "note": "[G6M]", "protein stability index": 2.46}
{"variant": "TRIMIRLTLVFFVQITGQPNILFY", "note": "[G6R]", "protein stability index": 2.75}
{"variant": "TRIMIQLTLVFFVQITGQPNILFY", "note": "[G6Q]", "protein stability index": 2.82}
{"variant": "TRIMIWLTLVFFVQITGQPNILFY", "note": "[G6W]", "protein stability index": 1.9}
{"variant": "TRIMIILTLVFFVQITGQPNILFY", "note": "[G6I]", "protein stability index": 1.06}
{"variant": "TRIMIDLTLVFFVQITGQPNILFY", "note": "[G6D]", "protein stability index": 2.73}
{"variant": "TRIMICLTLVFFVQITGQPNILFY", "note": "[G6C]", "protein stability index": 2.87}
{"variant": "TRIMIYLTLVFFVQITGQPNILFY", "note": "[G6Y]", "protein stability index": 2.48}
{"variant": "TRIMIFLTLVFFVQITGQPNILFY", "note": "[G6F]", "protein stability index": 4.16}
{"variant": "TRIMIALTLVFFVQITGQPNILFY", "note": "[G6A]", "protein stability index": 1.78}
{"variant": "TRIMIKLTLVFFVQITGQPNILFY", "note": "[G6K]", "protein stability index": 2.19}
